Reference: the supplement of paper PMC10065799, “High-throughput profiling of sequence recognition by tyrosine kinases and SH2 domains using bacterial peptide display” (eLife, 2023)

What was measured:
[1] = molecular target: EPHB1 (UniProt P54762); assay: phosphorylation enrichment, bacterial display (enrichment ratio); higher = better substrate or ligand; peptides without Tyr show the background
[2] = molecular target: EPHB2 (UniProt P29323); assay: as above
[3] = tested on: Fer (mouse); assay: as above
[4] = molecular target: Hck (UniProt P08631); assay: as above
Chain of Hck (P08631 whole entry, looked up): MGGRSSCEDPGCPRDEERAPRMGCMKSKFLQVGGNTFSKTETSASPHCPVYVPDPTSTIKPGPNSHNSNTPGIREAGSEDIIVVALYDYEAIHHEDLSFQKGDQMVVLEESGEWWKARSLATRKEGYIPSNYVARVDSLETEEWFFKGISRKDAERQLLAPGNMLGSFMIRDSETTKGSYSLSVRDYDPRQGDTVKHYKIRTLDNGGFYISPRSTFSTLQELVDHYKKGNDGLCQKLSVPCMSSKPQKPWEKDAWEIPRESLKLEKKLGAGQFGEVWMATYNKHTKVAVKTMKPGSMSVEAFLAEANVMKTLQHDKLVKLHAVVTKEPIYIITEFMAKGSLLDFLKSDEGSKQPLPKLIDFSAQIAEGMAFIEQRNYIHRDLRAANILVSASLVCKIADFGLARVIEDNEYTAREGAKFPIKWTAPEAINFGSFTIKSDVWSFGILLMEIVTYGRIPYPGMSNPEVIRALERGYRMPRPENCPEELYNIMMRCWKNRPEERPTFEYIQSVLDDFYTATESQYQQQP

[5] = molecular target: Fes (UniProt P07332); assay: as above
[6] = molecular target: MERTK (UniProt Q12866); assay: as above
Chain of MERTK (Q12866 whole entry, looked up): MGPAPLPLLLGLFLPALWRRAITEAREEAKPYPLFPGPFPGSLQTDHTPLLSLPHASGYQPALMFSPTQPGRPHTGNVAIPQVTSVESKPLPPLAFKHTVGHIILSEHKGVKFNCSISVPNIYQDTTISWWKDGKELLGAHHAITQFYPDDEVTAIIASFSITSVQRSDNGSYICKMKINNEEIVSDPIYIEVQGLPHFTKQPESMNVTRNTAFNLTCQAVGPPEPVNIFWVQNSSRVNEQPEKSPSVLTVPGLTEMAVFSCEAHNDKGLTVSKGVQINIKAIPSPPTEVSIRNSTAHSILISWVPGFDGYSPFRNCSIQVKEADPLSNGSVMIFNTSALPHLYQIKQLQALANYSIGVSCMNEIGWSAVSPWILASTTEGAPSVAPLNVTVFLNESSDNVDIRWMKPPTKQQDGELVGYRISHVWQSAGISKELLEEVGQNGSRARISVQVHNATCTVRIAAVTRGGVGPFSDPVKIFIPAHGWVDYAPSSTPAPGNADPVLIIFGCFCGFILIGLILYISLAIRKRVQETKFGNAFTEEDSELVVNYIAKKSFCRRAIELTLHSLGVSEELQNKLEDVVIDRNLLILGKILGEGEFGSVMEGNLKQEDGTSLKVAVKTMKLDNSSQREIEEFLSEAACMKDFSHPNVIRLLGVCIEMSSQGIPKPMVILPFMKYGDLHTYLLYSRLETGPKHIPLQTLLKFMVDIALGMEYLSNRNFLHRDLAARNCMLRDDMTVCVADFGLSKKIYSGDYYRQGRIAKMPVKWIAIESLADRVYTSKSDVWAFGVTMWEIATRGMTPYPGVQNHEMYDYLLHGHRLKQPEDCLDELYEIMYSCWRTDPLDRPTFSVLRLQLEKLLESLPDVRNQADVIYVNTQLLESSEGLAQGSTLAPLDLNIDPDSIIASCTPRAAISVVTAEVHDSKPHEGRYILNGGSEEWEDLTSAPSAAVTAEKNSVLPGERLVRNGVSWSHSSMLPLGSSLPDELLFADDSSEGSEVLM

[7] = molecular target: FGFR1 (UniProt P11362); assay: as above
[8] = molecular target: Fyn (UniProt P06241); assay: as above
Chain of Fyn (P06241 whole entry, looked up): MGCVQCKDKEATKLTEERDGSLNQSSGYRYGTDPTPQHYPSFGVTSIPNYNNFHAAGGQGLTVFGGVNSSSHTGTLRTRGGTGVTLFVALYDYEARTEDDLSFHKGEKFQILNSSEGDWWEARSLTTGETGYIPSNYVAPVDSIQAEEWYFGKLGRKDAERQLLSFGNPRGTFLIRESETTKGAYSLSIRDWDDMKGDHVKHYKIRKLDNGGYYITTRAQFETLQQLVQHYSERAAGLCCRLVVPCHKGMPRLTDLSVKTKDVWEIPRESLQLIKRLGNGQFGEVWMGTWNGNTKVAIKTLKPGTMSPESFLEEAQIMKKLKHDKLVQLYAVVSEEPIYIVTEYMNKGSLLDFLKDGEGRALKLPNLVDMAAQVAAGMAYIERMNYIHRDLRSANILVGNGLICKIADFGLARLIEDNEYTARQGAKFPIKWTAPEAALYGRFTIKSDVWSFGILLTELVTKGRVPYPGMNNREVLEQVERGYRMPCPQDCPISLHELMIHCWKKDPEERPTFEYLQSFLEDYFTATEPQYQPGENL

[9] = tested on: AncSZ; assay: as above
[10] = tested on: c-Src; assay: as above
[11] = molecular target: FGFR3 (UniProt P22607); assay: as above
Chain of FGFR3 (P22607 whole entry, looked up): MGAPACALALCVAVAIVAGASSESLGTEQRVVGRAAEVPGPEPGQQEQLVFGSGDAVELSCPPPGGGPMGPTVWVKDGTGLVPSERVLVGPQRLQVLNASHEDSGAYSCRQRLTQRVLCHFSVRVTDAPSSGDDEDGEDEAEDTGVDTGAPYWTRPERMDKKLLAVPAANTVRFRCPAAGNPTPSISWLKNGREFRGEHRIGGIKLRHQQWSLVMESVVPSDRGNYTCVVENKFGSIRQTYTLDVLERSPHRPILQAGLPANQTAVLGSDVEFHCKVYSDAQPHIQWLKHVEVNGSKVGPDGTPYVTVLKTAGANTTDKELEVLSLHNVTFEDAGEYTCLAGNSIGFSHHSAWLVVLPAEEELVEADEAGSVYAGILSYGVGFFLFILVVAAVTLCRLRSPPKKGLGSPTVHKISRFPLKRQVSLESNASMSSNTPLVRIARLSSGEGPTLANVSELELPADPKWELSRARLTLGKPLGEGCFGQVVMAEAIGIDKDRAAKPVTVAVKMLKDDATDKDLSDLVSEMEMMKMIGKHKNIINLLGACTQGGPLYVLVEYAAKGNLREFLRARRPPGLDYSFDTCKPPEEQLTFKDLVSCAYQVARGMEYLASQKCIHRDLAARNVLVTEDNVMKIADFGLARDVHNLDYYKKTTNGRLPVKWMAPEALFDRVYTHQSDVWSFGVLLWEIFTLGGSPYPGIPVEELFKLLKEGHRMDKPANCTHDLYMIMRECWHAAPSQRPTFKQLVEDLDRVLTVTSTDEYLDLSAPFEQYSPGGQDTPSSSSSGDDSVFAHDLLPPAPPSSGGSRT

[12] = molecular target: Jak2 (UniProt O60674); assay: as above
Chain of Jak2 (O60674 whole entry, looked up): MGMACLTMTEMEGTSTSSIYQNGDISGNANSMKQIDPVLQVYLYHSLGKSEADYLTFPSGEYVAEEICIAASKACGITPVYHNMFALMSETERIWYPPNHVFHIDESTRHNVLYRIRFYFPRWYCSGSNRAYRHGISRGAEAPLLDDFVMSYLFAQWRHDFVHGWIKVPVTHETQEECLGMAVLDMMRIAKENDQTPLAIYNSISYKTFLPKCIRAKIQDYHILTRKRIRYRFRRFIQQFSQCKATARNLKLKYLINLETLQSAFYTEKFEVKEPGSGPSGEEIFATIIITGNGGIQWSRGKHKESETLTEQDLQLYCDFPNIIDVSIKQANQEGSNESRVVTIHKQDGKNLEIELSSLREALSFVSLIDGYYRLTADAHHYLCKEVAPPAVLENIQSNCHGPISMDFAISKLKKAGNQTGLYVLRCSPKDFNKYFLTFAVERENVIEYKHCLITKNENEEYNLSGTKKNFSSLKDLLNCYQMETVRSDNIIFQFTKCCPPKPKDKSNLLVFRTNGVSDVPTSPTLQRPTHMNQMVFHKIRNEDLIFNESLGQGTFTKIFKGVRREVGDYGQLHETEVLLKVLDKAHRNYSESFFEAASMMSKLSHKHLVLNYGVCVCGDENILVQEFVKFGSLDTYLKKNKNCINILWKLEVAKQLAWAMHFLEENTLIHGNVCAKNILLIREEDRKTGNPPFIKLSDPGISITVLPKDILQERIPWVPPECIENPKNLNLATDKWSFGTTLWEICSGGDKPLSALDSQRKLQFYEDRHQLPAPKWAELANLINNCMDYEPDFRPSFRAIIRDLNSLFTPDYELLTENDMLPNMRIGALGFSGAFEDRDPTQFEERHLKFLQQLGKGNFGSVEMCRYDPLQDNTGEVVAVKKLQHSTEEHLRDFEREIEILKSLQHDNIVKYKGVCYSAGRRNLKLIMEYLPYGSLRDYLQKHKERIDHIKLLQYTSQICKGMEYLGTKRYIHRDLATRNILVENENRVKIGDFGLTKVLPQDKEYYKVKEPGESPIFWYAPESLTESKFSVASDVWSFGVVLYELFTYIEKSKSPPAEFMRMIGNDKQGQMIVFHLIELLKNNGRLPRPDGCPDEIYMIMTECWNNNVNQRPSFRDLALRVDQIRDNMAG

[13] = tested on: c-Abl (mouse); assay: as above
[14] = molecular target: SHP2-C SH2; assay: SH2 binding enrichment of the phosphorylated peptide, bacterial display (enrichment ratio); higher = better substrate or ligand; peptides without Tyr show the background
[15] = molecular target: c-Src SH2; assay: as above
[16] = molecular target: Grb2 SH2 (UniProt P62993); assay: as above
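Wherever SH2 binding enrichment of the phosphorylated peptide, bacterial display is given: peptide library displayed on the E. coli surface as eCPX fusions, selected cells deep-sequenced, score is each peptide's frequency after selection divided by its frequency in the input.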
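Wherever phosphorylation enrichment, bacterial display is given: 11-residue human phosphosite peptides and single-mutation variants displayed on the E. coli surface, counted by deep sequencing, each peptide's frequency after selection divided by its frequency in the unselected input library; frequency after pTyr selection over input frequency; kinase dosed for 20-30% of maximal phosphorylation in three min.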

Chain of EPHB2 (P29323 whole entry, looked up): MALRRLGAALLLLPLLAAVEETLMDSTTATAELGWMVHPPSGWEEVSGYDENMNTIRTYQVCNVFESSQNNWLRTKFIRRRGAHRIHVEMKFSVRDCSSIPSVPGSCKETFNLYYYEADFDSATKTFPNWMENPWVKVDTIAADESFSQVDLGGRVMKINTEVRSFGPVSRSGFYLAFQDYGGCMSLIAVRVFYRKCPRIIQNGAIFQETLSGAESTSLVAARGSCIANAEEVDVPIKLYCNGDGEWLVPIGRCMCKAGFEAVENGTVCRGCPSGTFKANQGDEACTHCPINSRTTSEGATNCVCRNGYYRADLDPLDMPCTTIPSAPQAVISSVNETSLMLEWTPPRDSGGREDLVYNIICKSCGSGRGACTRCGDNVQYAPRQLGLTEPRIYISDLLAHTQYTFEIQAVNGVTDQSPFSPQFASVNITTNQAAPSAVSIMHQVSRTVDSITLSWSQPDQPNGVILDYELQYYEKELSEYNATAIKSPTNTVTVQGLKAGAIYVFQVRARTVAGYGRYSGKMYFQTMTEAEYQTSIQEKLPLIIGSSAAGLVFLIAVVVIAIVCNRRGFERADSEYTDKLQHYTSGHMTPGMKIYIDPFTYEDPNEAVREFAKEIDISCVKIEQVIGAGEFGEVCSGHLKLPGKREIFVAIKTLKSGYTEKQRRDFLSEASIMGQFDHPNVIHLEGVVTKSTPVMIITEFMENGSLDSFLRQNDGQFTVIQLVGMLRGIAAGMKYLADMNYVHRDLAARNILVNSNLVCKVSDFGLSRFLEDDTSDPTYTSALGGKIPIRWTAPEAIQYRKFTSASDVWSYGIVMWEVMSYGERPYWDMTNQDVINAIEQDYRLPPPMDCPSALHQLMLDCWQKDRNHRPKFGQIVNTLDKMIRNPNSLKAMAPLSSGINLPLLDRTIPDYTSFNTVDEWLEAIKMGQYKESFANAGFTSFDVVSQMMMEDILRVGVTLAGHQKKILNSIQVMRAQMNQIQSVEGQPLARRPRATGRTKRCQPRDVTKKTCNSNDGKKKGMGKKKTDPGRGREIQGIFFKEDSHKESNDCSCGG

Sequence | phosphorylation enrichment [1] | phosphorylation enrichment [2] | phosphorylation enrichment [3] | phosphorylation enrichment [4] | phosphorylation enrichment [5] | phosphorylation enrichment [6] | phosphorylation enrichment [7] | phosphorylation enrichment [8] | phosphorylation enrichment [9] | phosphorylation enrichment [10] | phosphorylation enrichment [11] | phosphorylation enrichment [12] | phosphorylation enrichment [13] | SH2 binding enrichment [14] | SH2 binding enrichment [15] | SH2 binding enrichment [16]
QADIIYVNTQL [MERTK_Y872_V870I] | 1.18 | 0.518 | 4.18 | 0.886 | 1.29 | 0.571 | 0.712 | 1.09 | 1.28 | 1.24 | 0.84 | 1.05 | 1.02 | 0.543 | 0.475 | 0.916
QDGYSYPSRQM [LDLR_Y847] | 0.49 | 0.576 | 0.557 | 0.475 | 1.21 | 0.983 | 0.88 | 0.624 | 1.98 | 0.734 | 0.87 | 1.17 | 0.663 | 0.732 | 6.19 | 0.857
QDRTFYERVRT [SPEN_Y633_S635R_YF] | 0.416 | 0.42 | 3.63 | 1.2 | 0.591 | 0.539 | 0.529 | 0.403 | 0.583 | 0.402 | 0.441 | 0.509 | 0.582 | 4.46 | 2.36 | 0.603
QDTSRYTVSNL [BIRC3_Y245] | 0.675 | 0.467 | 0.501 | 0.467 | 0.824 | 0.567 | 0.516 | 0.523 | 0.971 | 0.617 | 0.71 | 0.644 | 0.804 | 0.54 | 0.453 | 0.879
QEGPEYWDEET [HLA-A_Y83_Q86E] | 1.25 | 1.25 | 0.951 | 1.05 | 1.88 | 1.07 | 1.24 | 1.02 | 2.5 | 0.796 | 1.33 | 1.38 | 1.32 | 0.699 | 0.646 | 0.91
QEGPEYWDRNT [HLA-B_Y83] | 0.9 | 0.741 | 0.557 | 0.685 | 1.29 | 0.49 | 1.03 | 0.763 | 1.36 | 0.485 | 0.913 | 0.806 | 0.757 | 0.711 | 0.377 | 0.856
QGIFGYHHFMQ [UFSP2_Y287_YF] | 0.794 | 0.59 | 0.857 | 0.692 | 1.41 | 0.549 | 0.838 | 0.615 | 1.32 | 0.531 | 0.93 | 1.27 | 1.13 | 1.23 | 1.2 | 1.47
QKMADYSNKLH [PDPR_Y104_Y109H] | 0.569 | 0.864 | 0.571 | 0.586 | 0.835 | 0.429 | 0.527 | 0.382 | 0.843 | 0.706 | 0.708 | 0.974 | 0.714 | 1.13 | 0.466 | 0.766
QLAPQYTFTQG [FLNA_Y1761_A1764T_YF] | 0.621 | 0.845 | 0.58 | 0.748 | 1.09 | 1.1 | 0.918 | 1.09 | 1.27 | 1.12 | 0.982 | 1.21 | 1.49 | 0.5 | 0.635 | 0.915
QLAPQYTYAQG [FLNA_Y1761] | 0.52 | 1.19 | 0.448 | 0.624 | 1.01 | 0.65 | 0.714 | 0.61 | 0.722 | 0.693 | 0.704 | 0.696 | 0.61 | 2.01 | 3.16 | 0.887
QLCVNYPGGYT [PROS1_Y259] | 1.32 | 0.772 | 0.811 | 0.965 | 1.66 | 0.513 | 0.767 | 1 | 1.24 | 0.537 | 1.42 | 0.999 | 0.845 | 0.571 | 0.528 | 0.796
QLFGPYLRIHA [BSCL2_Y213_A212P_YF] | 1.13 | 0.548 | 0.427 | 0.515 | 1.56 | 0.485 | 0.733 | 0.588 | 1.25 | 0.785 | 1.03 | 1.35 | 0.628 | 1.54 | 1.17 | 1.33
QLQTNYPSSDN [MAX_Y115] | 0.583 | 0.766 | 0.551 | 0.527 | 1.14 | 0.657 | 0.642 | 0.476 | 0.951 | 0.628 | 0.725 | 0.773 | 1.02 | 0.513 | 0.546 | 0.752
QLRPGYFPIPV [BAG3_Y93_I94F] | 0.448 | 0.585 | 0.42 | 0.466 | 0.679 | 0.531 | 0.593 | 0.536 | 0.6 | 0.423 | 0.56 | 0.981 | 0.53 | 0.906 | 0.475 | 0.697
QRASDYFSQQM [GBP6_Y333_A331S_YF] | 1.56 | 0.854 | 0.667 | 0.866 | 1.49 | 0.711 | 0.684 | 0.662 | 1.29 | 0.632 | 1.39 | 1.02 | 1.28 | 0.964 | 0.464 | 0.668
QRHFVYFFSFL [PTEN_Y176_R173H_YF] | 0.983 | 0.761 | 1.11 | 1.09 | 1.88 | 0.717 | 1.69 | 1.07 | 1.91 | 0.664 | 1.46 | 1.46 | 1.31 | 0.842 | 0.911 | 1.48
QRRYLYYYSYL [PTEN_Y176_V175L] | 1.19 | 1.12 | 0.671 | 2.2 | 0.887 | 7.18 | 4.64 | 1.62 | 1.14 | 2.84 | 3.52 | 4.97 | 0.494 | 0.683 | 0.507 | 0.776

Sequence | phosphorylation enrichment [1] | phosphorylation enrichment [2] | phosphorylation enrichment [3] | phosphorylation enrichment [4] | phosphorylation enrichment [5] | phosphorylation enrichment [6] | phosphorylation enrichment [7] | phosphorylation enrichment [8] | phosphorylation enrichment [9] | phosphorylation enrichment [10] | phosphorylation enrichment [11] | phosphorylation enrichment [12] | phosphorylation enrichment [13] | SH2 binding enrichment [14] | SH2 binding enrichment [15] | SH2 binding enrichment [16]
QRVLLYVRRET [GRHL3_Y518] | 0.461 | 0.577 | 0.468 | 0.669 | 0.796 | 0.801 | 0.676 | 0.699 | 1.01 | 0.834 | 0.781 | 0.9 | 0.41 | 0.421 | 0.488 | 0.713
QSPQLYKQMCI [DARS1_Y253] | 0.836 | 0.559 | 0.673 | 0.634 | 0.896 | 0.603 | 0.461 | 0.796 | 0.881 | 0.485 | 0.573 | 0.917 | 0.932 | 0.904 | 0.638 | 0.904
QTEAPYRFIFM [PTPN11_Y511_Q510P_YF] | 0.728 | 0.626 | 4.48 | 0.645 | 1.34 | 0.595 | 2.71 | 0.637 | 1.34 | 0.777 | 1.98 | 1.55 | 1.34 | 0.751 | 0.367 | 0.662
QTWKTYVRHQQ [SFI1_Y164_Q167H] | 0.548 | 0.509 | 0.465 | 0.486 | 1.29 | 0.49 | 0.535 | 0.476 | 0.901 | 0.769 | 2.21 | 1.3 | 1.36 | 0.946 | 0.784 | 1.38
QVMDGYPMPIG [MMP14_Y353] | 0.673 | 0.511 | 0.53 | 0.601 | 0.964 | 0.906 | 0.529 | 0.564 | 0.861 | 0.517 | 0.629 | 0.987 | 1.03 | 0.423 | 0.572 | 0.675
QWQQLYDTLNA [EIF3M_Y351] | 2.15 | 1.63 | 4.62 | 8.42 | 1.29 | 6.06 | 0.556 | 5.55 | 1.63 | 3.99 | 0.932 | 1.06 | 0.546 | 0.777 | 0.636 | 1.16
RAILLYEYVGK [NATD1_Y45_V42I] | 33.9 | 46.9 | 26.3 | 15.5 | 7.22 | 19.1 | 4.68 | 11.2 | 3.29 | 11.1 | 5.74 | 2.34 | 2.4 | 1.25 | 1.55 | 1.56
RALLNYIASKF [GSTA3_Y74_I71L_YF] | 0.763 | 0.624 | 0.553 | 0.721 | 0.956 | 0.597 | 0.423 | 0.385 | 1.13 | 0.587 | 0.767 | 0.536 | 0.638 | 0.579 | 0.49 | 0.842
RAMRRYLEWGE [ERBB3_Y680_R683W] | 0.403 | 0.398 | 0.834 | 0.657 | 0.561 | 0.466 | 0.427 | 0.553 | 0.514 | 0.834 | 0.314 | 0.677 | 0.4 | 0.571 | 0.437 | 0.632
RDLHTYIMPAH [PNMT_Y256_R254H] | 0.754 | 0.725 | 0.564 | 0.748 | 1.24 | 0.601 | 0.982 | 1.19 | 1.61 | 0.631 | 1.04 | 0.957 | 0.878 | 0.504 | 1.27 | 0.609
RDMNACIRPSP [MMAA_Y207_Y207C] | 1.06 | 1.07 | 0.571 | 0.798 | 1.29 | 0.62 | 0.934 | 0.773 | 1.12 | 0.375 | 1.03 | 0.581 | 0.565 | 0.444 | 0.58 | 0.969
RELGEYALAEF [ALDH1A3_Y492_YF] | 0.857 | 0.697 | 0.699 | 0.661 | 1.06 | 0.478 | 0.725 | 0.77 | 1.28 | 0.665 | 0.784 | 0.821 | 0.849 | 0.411 | 0.93 | 0.684
RENGPYFASFP [GDAP2_Y487_T489A_YF] | 0.443 | 0.534 | 0.627 | 0.432 | 0.924 | 0.565 | 0.889 | 0.568 | 1.17 | 1.27 | 0.891 | 1.27 | 0.893 | 0.707 | 0.534 | 0.812
RENGPYFTSFP [GDAP2_Y487_YF] | 0.417 | 0.645 | 0.591 | 0.49 | 1.17 | 0.568 | 0.764 | 0.479 | 1.03 | 0.971 | 0.825 | 0.991 | 1.19 | 0.773 | 0.714 | 0.878
RESYKYFPSSL [CXXC1_Y218] | 0.651 | 0.475 | 0.82 | 0.685 | 0.841 | 0.69 | 0.51 | 0.843 | 1.18 | 0.861 | 1.09 | 1.15 | 0.77 | 0.697 | 0.688 | 1.06
RFGKVYKGHLF [ROR2_Y488] | 0.377 | 0.767 | 0.585 | 0.604 | 0.924 | 1.02 | 0.661 | 0.717 | 0.806 | 0.86 | 0.754 | 0.803 | 1.69 | 0.61 | 0.331 | 1.13
